Experimental data published in PMC4493011, “The Cold Shock Domain of YB-1 Segregates RNA from DNA by Non-Bonded Interactions”.

Assays:
Details in all cases: protein: recombinant; single strand
YB-1 (full-length) [1] = biological target: T1, YB-1 (full-length) (human, UniProt P67809 1-324); test: EMSA; apparent Kd, protein concentration at 50% saturation; 7 pmol DNA in 10 ul; 10 mM Hepes-KOH pH 7.6, 100 mM KCl, 30 C, 15 min, 10 ul; 8% native PAGE in TBE, silver staining
[2] = biological target: T2, YB-1 cold shock domain (CSD) (human, UniProt P67809 51-129); test: as above
T2 sequence (P67809 51-129): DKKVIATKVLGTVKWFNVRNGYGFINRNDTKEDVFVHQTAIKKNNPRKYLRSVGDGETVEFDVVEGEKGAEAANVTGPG

YB-1 (full-length) [3] = biological target: T1, YB-1 (full-length); test: EMSA; apparent Kd, protein concentration at 50% saturation; 7 pmol RNA in 10 ul; 10 mM Hepes-KOH pH 7.6, 100 mM KCl, 30 C, 15 min, 10 ul; 8% native PAGE in TBE, silver staining
[4] = biological target: T2, YB-1 cold shock domain (CSD); test: as above

T1 sequence (P67809 whole entry, the tested form may be a part): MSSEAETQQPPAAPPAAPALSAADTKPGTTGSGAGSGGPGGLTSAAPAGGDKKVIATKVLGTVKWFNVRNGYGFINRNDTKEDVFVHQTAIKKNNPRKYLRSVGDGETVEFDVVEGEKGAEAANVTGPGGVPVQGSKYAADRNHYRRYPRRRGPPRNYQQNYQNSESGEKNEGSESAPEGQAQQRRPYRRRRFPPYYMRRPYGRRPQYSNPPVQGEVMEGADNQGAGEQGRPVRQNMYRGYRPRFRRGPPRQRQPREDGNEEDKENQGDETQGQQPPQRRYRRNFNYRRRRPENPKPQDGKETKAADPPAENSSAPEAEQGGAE

Binder | Kd (YB-1 (full-length) [1]) | Kd [2] | Kd (YB-1 (full-length) [3]) | Kd [4]
AGGATGGGTGAGTGAGGTAG (ssDNA) [G-rich DNA 20-mer] | 600 nM | 6000 nM |  | 
AGGAUGGGUGAGUGAGGUAG (ssRNA) [G-rich RNA 20-mer] |  |  | 300 nM | 2500 nM
